Data on two substances can be found in patent EP0239400B1.

The target of experiment [1] is hen eggwhite lysozyme (hen) (UniProt P00698). As to the kind of experiment: fluorescence quench titration with hen eggwhite lysozyme, in solution; reassociated chains.
The target is the same in experiment [2]. Put plainly: fluorescence quench titration with hen eggwhite lysozyme, in solution.

Sequence of UniProt P00698 (P00698 19-147 limits assumed): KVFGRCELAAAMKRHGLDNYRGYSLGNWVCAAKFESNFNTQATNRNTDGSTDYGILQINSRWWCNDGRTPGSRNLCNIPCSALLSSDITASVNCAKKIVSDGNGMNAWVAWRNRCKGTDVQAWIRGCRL

By Kd is commonly meant the equilibrium constant for the complex coming apart. Read a high Kd as a looser complex. With antilysozyme antibody D1.3 (H₂K₂), the Kd in experiment [1] came to 11.4 nM; in experiment [2] it was 14.4 nM.

As for “recombinant D1.3 (H*₂K₂) (reassociated) (antibody)”, the Kd in experiment [1] is 9.2 nM.
